Assay: Effect of dialysis membrane MWCO on diffusion of BSA and IgG from VH-compartment to FT-compartment
Format: in vitro ADME, porcine
Conditions: DM-1 50 kDa MWCO compared with DM-1 100 kDa MWCO; DM-2 100 kDa; HA gel 0.6% w/v
Protocol: Diffusion of bovine serum albumin (BSA) and Immunoglobulin G (IgG) in the flow direction from VH-compartment to FT-compartment was investigated by varying MWCO of the dialysis membrane. The experiment was performed similarly as described in example 1 with minor modifications. Two different MWCO dialysis membranes were used as DM-1, with MWCO 50 kDa and 100 kDa, whereas the MWCO of DM-2 was kept constant at 100 kDa. VH-compartment was filled with 3.5 mL of sterile porcine VH and GM-compartment was filled with about 3 mL of sterile HA gel (0.6% w/v). FT-compartment was filled with sterile PBS.

Substance: FITC-BSA: FITC-labelled bovine serum albumin (66 kDa), globular macromolecule
- diffusion into FT compartment: restrained the diffusion of both IgG and BSA significantly
